Data on two molecules can be found in patent US20240200055A1, “TRANSFORMED CELL LINES EXPRESSING IL24-STAT3 AND METHODS FOR SCREENING AGENTS FOR TREATING BY TARGETING IL24-STAT3 SIGNALING PATHWAY USING THE SAME” (UIF (University Industry Foundation), Yonsei University, priority 2022, published 2024).

Bounds are passed on as bounds.

One experiment deals with HeLa-EF1a-Luc2 cells. Briefly: Luciferase reporter activity in HeLa-EF1a-Luc2 cells (background control). The class given is cell-based, human. The following applies: 1 μM Stattic, 150 ng/mL IL24, 8 hours, vs DMSO. The method, then:
(§1) Hela cells were cultured to 20% confluency on the day of infection. After removing the culture medium, lentivirus expressing Luc2 (LVX-EIP-Luc2) was mixed with a culture medium and treated to the cells. After adding 2 μg of Polybrene per 1 mL of the virus, the plate was carefully shaken for mixing. After culturing for 15 hours under the condition of 37° C. and 5% CO2, the culture medium was replaced with a fresh one. 48 hours later, the transduced cells were cultured further and recombinant HeLa-EF1a-Luc2 cells were selected by culturing for 2 weeks in a medium containing 2 μg/mL puromycin as an antibiotic.
(§2) HeLa-IL24HTS cells and HeLa-EF1a-Luc2 cells were cultured on a 96-well plate at a concentration of 2.0×10^4 cells/well, respectively. After treating the cells with a vehicle (DMSO) (no Stattic) or 1 μM Stattic (CAS No: 19983-44-9), which is a STAT3 inhibitor, while treating with 150 ng/mL IL24 and culturing for 8 hours, luciferase activity was measured using a luciferase assay system (Promega).
In general terms: Reporter assays use an easily measured gene product as a stand-in for the process of interest.

The subject of experiment [1] is IL24-STAT3 signaling. Kind of experiment: IL24-induced STAT3 luciferase reporter activity in HeLa-IL24HTS cells, inhibitor test. Particulars: 1 μM Stattic, 150 ng/mL IL24, 8 hours, vs DMSO. The class given is cell-based, human. The method, then:
as §1, with “The selected and established HeLa-4.47” for “Hela”, “hIL22RA1, hIL20RB or hSTAT3” for “Luc2 (LVX-EIP-Luc2)”, “HeLa-IL24HTS” for “HeLa-EF1a-Luc2”, “puromycin, 5 μg/mL blasticidin S and 1,000 μg/mL G418” for “puromycin”, “antibiotics. Through this experiment, HeLa-4.47-hIL22RA1-hIL20RB-hSTAT3 cells that stably express all of hIL22RA1, hIL20RB and hSTAT3 were established and named HeLa-IL24HTS.” for “an antibiotic.”
as §2

Experiment [2] deals with IL24-STAT3 signaling. Kind of experiment: Luciferase activity of pGL4.47 HeLa clones co-transfected with hIL22RA1, hIL20RB and hSTAT3, with or without IL24. The class given is cell-based, human. Particulars: 150 ng/mL IL24, 24 hours, clone 12 (HeLa-4.47). The procedure: 2 mg of pGL4.47 (Promega, E4041), which is a STAT3 reporter plasmid, was linearized using the Pst1 restriction enzyme. The linearized plasmid was transfected into Hela cells using polyethyleneimine (Polysciences). 48 hours later, the cells were transferred to a 100-mm culture dish and only the transfected cells were selected by treating with 500 μg/mL hygromycin and culturing for 2 weeks. The selected transfected cells were cultured on a 96-well plate. The cells were dispensed at 0.5 cell per well. 33 clones were obtained by culturing further for 3 weeks. Each clone was mixed with pCMV-SPORT6-hIL22RA1 (Korea Human Gene Bank), pCMV3-hIL20RB (SinoBiological) and pCMV3-hSTAT3 (SinoBiological) at 1:1:1 for co-transfection. The transfected cells were treated or untreated with 150 ng/mL IL24. After culturing for 24 hours, luciferase activity was measured by luciferase assay. The clone with the strongest activity was established and named HeLa-4.47.
HeLa cells were transfected with pGL4.47 and selecting using hygromycin to obtain 33 clones. After co-transfecting each clone by mixing with pCMV-SPORT6-hIL22RA1, pCMV3-hIL20RB and pCMV3-hSTAT3 at 1:1:1, luciferase activity was measured using a luciferase assay system (Promega) for treatment with 150 ng/mL IL24 (IL24(+)) or absence of treatment (IL24(−)).

Experiment [3] relates to IL24-STAT3 signaling. Kind of experiment: Reporter activity of HeLa-IL24HTS cells treated with IL24 at different concentrations. The format is cell-based, human. The following applies: 15 ng/mL or higher IL24, 24 hours. The method, then: The HeLa-4.47 cells established in Test Example 2 were treated with lentivirus expressing hIL22RA1, hIL20RB or hSTAT3 and selected with 2 μg/mL puromycin, 5 μg/mL blasticidin S and 1,000 μg/mL G418 as antibiotics to obtain HeLa-4.47-hIL22RA1-hIL20RB-hSTAT3 cells (HeLa-IL24HTS) which stably express all of hIL22RA1, hIL20RB and hSTAT3. The specific process of preparing the HeLa-IL24HTS cell line was the same as described above.
After treating the prepared HeLa-IL24HTS cells with IL24 at different concentrations (0.15 ng/mL, 1.5 ng/mL, 15 ng/mL and 150 ng/mL) and culturing for 24 hours, luciferase activity was measured using a luciferase assay system (Promega). […] It can be seen that the HeLa-IL24HTS cells show strong reporter induction of 60 fold or higher in the presence of 15 ng/mL or higher IL24.

The test system of experiment [4] is IL24-STAT3 signaling. Particulars: earlier literature reporter assay; cited from earlier work.

Consider `O=[N+]([O-])c1ccc2c(c1)S(=O)(=O)C=C2` [Stattic], for which the “change in reporter activity” value in the experiment on HeLa-EF1a-Luc2 cells is given as “no significant change”. Also, the reporter activity inhibited entry with IL24-STAT3 signaling [1] was “about 80%”.

B1: IL24: cytokine of the IL-10 family that signals through IL-20R1/IL-20R2 and IL-22R1/IL-20R2 and activates STAT3 (protein, UniProt Q13007 52-206, looked up)
Interleukin-24: QEFHFGPCQVKGVVPQKLWEAFWAVKDTMQAQDNITSARLLQQEVLQNVSDAESCYLVHTLLEFYLKTVFKNYHNRTVEVRTLKSFSTLANNFVLIVSQLQPSQENEMFSIRDSAHRRFLLFRRAFKQLDVEAALTKALGEVDILLTWMQKFYKL
In the case of B1, the “IL24(+)/IL24(−) ratio of luciferase activity” value with IL24-STAT3 signaling [2] is recorded as 150-200. In the experiment on IL24-STAT3 signaling [3], the reporter induction is listed as ≥ 60 fold. In the experiment on IL24-STAT3 signaling [4], the “increase of reporter signal by IL24” value is “about 3 times”.
